For one substance, activity results are on record in patent publication US5385834.

Data set [1] has as its target T7 RNA polymerase mutant GP1(lys222) E222K (Bacteriophage T7) (UniProt P00573). Conditions: in vitro transcription, +/-0.008 vs T7 promoter; 40 nM enzyme; may be nonspecific initiation.
Data set [2] addresses T7 RNA polymerase (wild-type) (Bacteriophage T7) (UniProt P00573). Conditions: in vitro transcription, +/-0.003 vs T7 promoter; 80 nM enzyme.

For T3 promoter plasmid pLM10, the activity in data set [1] was 0.027 relative; in data set [2] it was 0.009 relative.
